According to PMC5805711:
Read-outs that look alike come from different tables or passages of the source.

Experiments:
[1] = molecular target: T1, His68 (UniProt position 68, KESTLHLVLRL); assay: NMR; conditions: 23 °C; Not stated explicitly for Ub^WT; described as 'a similar pH titration' to that of pUb in citric acid-phosphate buffer; Free wild-type ubiquitin, folded
[2] = molecular target: T1, His68; conditions: Ubiquitin; form not further specified (literature value); cited from earlier work

Substance: Ubiquitin (Ub^WT) (Homo sapiens (inferred; the article does not state the species of the ubiquitin))
- pKa [1]: 5.7
- pKa [2]: 5.5
